Test results from article PMC7968844.

Tests used:
[1] = FLAG pulldown, MS peptide reads; conditions: glycan lost; control: MCF7-WT cells
[2] = CHX chase, Western blot, endogenous ERα; conditions: glycan lost; control: MCF7-WT cells, empty vector
[3] = Western blot of ERα after GREB1 reconstitution; conditions: glycan gained; control: GREB1-KO cells + Vec
[4] = CHX chase, Western blot, MCF7-WT cells; conditions: glycan lost; control: ERα-WT in MCF7-WT cells
[5] = CHX chase, Western blot, GREB1-KO cells; conditions: glycan lost; control: ERα-WT in GREB1-KO cells

B1: ERα (estrogen receptor α): GREB1-KO (protein)
parent chain: MTMTLHTKASGMALLHQIQGNELEPLNRPQLKIPLERPLGEVYLDSSKPAVYNYPEGAAYEFNAAAAANAQVYGQTGLPYGPGSEAAAFGSNGLGGFPPLNSVSPSPLMLLHPPPQLSPFLQPHGQQVPYYLENEPSGYTVREAGPPAFYRPNSDNRRQGGRERLASTNDKGSMAMESAKETRYCAVCNDYASGYHYGVWSCEGCKAFFKRSIQGHNDYMCPATNQCTIDKNRRKSCQACRLRKCYEVGMMKGGIRKDRRGGRMLKHKRQRDDGEGRGEVGSAGDMRAANLWPSPLMIKRSKKNSLALSLTADQMVSALLDAEPPILYSEYDPTRPFSEASMMGLLTNLADRELVHMINWAKRVPGFVDLTLHDQVHLLECAWLEILMIGLVWRSMEHPGKLLFAPNLLLDRNQGKCVEGMVEIFDMLLATSSRFRMMNLQGEEFVCLKSIILLNSGVYTFLSSTLKSLEEKDHIHRVLDKITDTLIHLMAKAGLTLQQQHQRLAQLLLILSHIRHMSNKGMEHLYSMKCKNVVPLYDLLLEMLDAHRLHAPTSRGGASVEETDQSHLATAGSTSSHSLQKYYITGEAEGFPATV
**Q.** For B1, which “other: ubiquitin associated with ERα” value [1] is on record?
**A.** The value was “increases”.

**Q.** And the degradation_or_half_life [2]?
**A.** The degradation_or_half_life was “decreases”.

B2: ERα (estrogen receptor α): GT-WT (protein)
parent chain: B1 parent chain
**Q.** For B2, which expression_or_secretion [3] is on record?
**A.** The expression_or_secretion was “increases”.

B3: ERα (estrogen receptor α): ERα-2M (protein)
parent chain: B1 parent chain
**Q.** What does the source list for B3?
**A.** degradation_or_half_life [4]: decreases; degradation_or_half_life [5]: no change
